Measurements: article PMC5870055, “Structural and Mechanistic Analysis of the Choline Sulfatase from Sinorhizobium melliloti: A Class I Sulfatase Specific for an Alkyl Sulfate Ester” (Journal of Molecular Biology, 2018)

B1: SmCS Δ12 (truncated mutant lacking 12 C-terminal amino acids) (domain or fragment, Sinorhizobium meliloti 1021, UniProt O69787 1-500, looked up)
chain: MTTGKPNILIIMVDQLNGKLFPDGPADFLHAPNLKALAKRSARFHNNYTSSPLCAPARASFMAGQLPSRTRVYDNAAEYQSSIPTYAHHLRRAGYYTALSGKMHFVGPDQLHGFEERLTTDIYPADFGWTPDYRKPGERIDWWYHNLGSVTGAGVAEITNQMEYDDEVAFLANQKLYQLSRENDDESRRPWCLTVSFTHPHDPYVARRKFWDLYEDCEHLTPEVGAIPLDEQDPHSQRIMLSCDYQNFDVTEENVRRSRRAYFANISYLDEKVGELIDTLTRTRMLDDTLILFCSDHGDMLGERGLWFKMNFFEGSARVPLMIAGPGIAPGLHLTPTSNLDVTPTLADLAGISLEEVRPWTDGVSLVPMVNGVERTEPVLMEYAAEASYAPLVAIREGKWKYVYCALDPEQLFDLEADPLELTNLAENPRGPVDQATLTAFRDMRAAHWDMEAFDAAVRESQARRWVVYEALRNGAYYPWDHQPLQKASERYMRNHMNLD
notes: Choline sulfatase (BetC) of S. meliloti 1021 with Thr501 replaced by a stop codon, so that the last 12 residues (501-512) are missing; Predominantly a tetramer (87%), with some dimer (11%) and monomer (2%); Made from the pASK-IBA5plusSmCS WT plasmid by QuikChange; source: E. coli BL21(DE3) expressing MtbFGE, purified (Q-Sepharose, Strep-Tactin, Superdex 200)
B2: Sinorhizobium meliloti choline sulfatase wild type (enzyme, Sinorhizobium meliloti 1021, UniProt O69787 1-512, looked up)
chain: MTTGKPNILIIMVDQLNGKLFPDGPADFLHAPNLKALAKRSARFHNNYTSSPLCAPARASFMAGQLPSRTRVYDNAAEYQSSIPTYAHHLRRAGYYTALSGKMHFVGPDQLHGFEERLTTDIYPADFGWTPDYRKPGERIDWWYHNLGSVTGAGVAEITNQMEYDDEVAFLANQKLYQLSRENDDESRRPWCLTVSFTHPHDPYVARRKFWDLYEDCEHLTPEVGAIPLDEQDPHSQRIMLSCDYQNFDVTEENVRRSRRAYFANISYLDEKVGELIDTLTRTRMLDDTLILFCSDHGDMLGERGLWFKMNFFEGSARVPLMIAGPGIAPGLHLTPTSNLDVTPTLADLAGISLEEVRPWTDGVSLVPMVNGVERTEPVLMEYAAEASYAPLVAIREGKWKYVYCALDPEQLFDLEADPLELTNLAENPRGPVDQATLTAFRDMRAAHWDMEAFDAAVRESQARRWVVYEALRNGAYYPWDHQPLQKASERYMRNHMNLDTLEESKRYPRGE
modifications: Cys54 partially converted into formylglycine (fGly); modelled as cysteine and formyl glycine at 50% occupancy each
notes: Choline sulfatase (BetC) of S. meliloti 1021; the whole gene (positions 1491-3029 of GenBank U39940) amplified from genomic DNA and cloned into pASK-IBA5plus; the C-terminal region is printed as residues 449-512; Protomer Mw ~61 kDa; also called SmCS; SmCS WT; source: E. coli BL21(DE3) expressing MtbFGE, purified (Q-Sepharose, Strep-Tactin, Superdex 200)
B3: SmCS Δ23 (truncated mutant lacking 23 C-terminal amino acids) (domain or fragment, Sinorhizobium meliloti 1021, UniProt O69787 1-489, looked up)
chain: MTTGKPNILIIMVDQLNGKLFPDGPADFLHAPNLKALAKRSARFHNNYTSSPLCAPARASFMAGQLPSRTRVYDNAAEYQSSIPTYAHHLRRAGYYTALSGKMHFVGPDQLHGFEERLTTDIYPADFGWTPDYRKPGERIDWWYHNLGSVTGAGVAEITNQMEYDDEVAFLANQKLYQLSRENDDESRRPWCLTVSFTHPHDPYVARRKFWDLYEDCEHLTPEVGAIPLDEQDPHSQRIMLSCDYQNFDVTEENVRRSRRAYFANISYLDEKVGELIDTLTRTRMLDDTLILFCSDHGDMLGERGLWFKMNFFEGSARVPLMIAGPGIAPGLHLTPTSNLDVTPTLADLAGISLEEVRPWTDGVSLVPMVNGVERTEPVLMEYAAEASYAPLVAIREGKWKYVYCALDPEQLFDLEADPLELTNLAENPRGPVDQATLTAFRDMRAAHWDMEAFDAAVRESQARRWVVYEALRNGAYYPWDHQPLQKAS
notes: Choline sulfatase (BetC) of S. meliloti 1021 with Glu490 replaced by a stop codon, so that the last 23 residues (490-512) are missing; Predominantly a dimer (78%); source: E. coli BL21(DE3) expressing MtbFGE, purified (Q-Sepharose, Strep-Tactin, Superdex 200)

Target: the molecule itself
Experiment: SEC-MALS; 100 uL of 2 mg/mL protein on Superdex 200 10/300 HR in 100 mM Tris-HCl pH 8.0, 150 mM NaCl, 0.5 mL/min; multi-angle light scattering and differential refractive index detectors

B1 and B2 are the same in “stoichiometry N” value: 4 for the first, 4 for the second.

B3 was tested, and the “stoichiometry N” value was 2.
